According to the PETadex activity labels (doi:10.1016/j.bbagen.2004.12.016):

B1: unnamed (protein)
chain: MKQFSAKHALAVVVTAGHALAASTQGISEDLYTRLVEMATISQAAYADLCNIPSTIIKGEKIYNSQTDINGWILRDDSSKEIITVFRGTGSDTNLQLDTNYTLTPFDTLPQCNGCEVHGGYYIGWVSVQDQVESLVKQQVSQYPDYALTVTGHSLGASLAALTAAQLSATYDNIRLYTFGEPRSGNQAFASYMNDAFQASSPDTTQYFRVTHANDGIPNLPPVEQGYAHGGVEYWSVDPYSAQNTFVCTGDEVQCCEAQGGQGVNNAHTTYFGMTSGACTW
B2: unnamed (protein)
chain: MKQFSAKHALAVVVTAGHALAASTQGISEDLYTRLVEMATISQAAYADLCNIPSTIIKGEKIYNSQTDINGWILRDDSSKEIITVFRGTGSDRNLQLDTNYTLTPFDTLPQCNGCEVHGGYYIGWVSVQDQVESLVKQQVSQYPDYALTVTGHSLGASLAALTAAQLSATYDNIRLYTFGEPRSGNQAFASYMNDAFQASSPDTTQYFRVTHANDGIPNLPPVEQGYAHGGVEYWSVDPYSAQNTFVCTGDEVQCCEAQGGQGVNNAHTTYFGMTSGACTW
B3: unnamed (protein)
chain: MKQFSAKHALAVVVTAGHALAASTQGISEDLYTRLVEMATISQAAYADLCNIPSTIIKGEKIYNSQTDINGWILRDDSSKEIITVFRGTGSDTNLQLDTNFTLTPFDTLPQCNGCEVHGGYYIGWVSVQDQVESLVKQQVSQYPDYALTVTGHSLGASLAALTAAQLSATYDNIRLYTFGEPRSGNQAFASYMNDAFQASSPDTTQYFRVTHANDGIPNLPPVEQGYAHGGVEYWSVDPYSAQNTFVCTGDEVQCCEAQGGQGVNNAHTTYFGMTSGACTW
B4: unnamed (protein)
chain: MKQFSAKHALAVVVTAGHALAASTQGISEDLYTRLVEMATISQAAYADLCNIPSTIIKGEKIYNSQTDINGWILRDDSSKEIITVFRGTGSDTNLQLITNYTLTPFDTLPQCNGCEVHGGYYIGWVSVQDQVESLVKQQVSQYPDYALTVTGHSLGASLAALTAAQLSATYDNIRLYTFGEPRSGNQAFASYMNDAFQASSPDTTQYFRVTHANDGIPNLPPVEQGYAHGGVEYWSVDPYSAQNTFVCTGDEVQCCEAQGGQGVNNAHTTYFGMTSGACTW
B5: unnamed (protein)
chain: MKQFSAKHALAVVVTAGHALAASTQGISEDLYTRLVEMATISQAAYADLCNIPSTIIKGEKIYNSQTDINGWILRDDSSKEIITVFRGTGSDTNLQLNTNYTLTPFDTLPQCNGCEVHGGYYIGWVSVQDQVESLVKQQVSQYPDYALTVTGHSLGASLAALTAAQLSATYDNIRLYTFGEPRSGNQAFASYMNDAFQASSPDTTQYFRVTHANDGIPNLPPVEQGYAHGGVEYWSVDPYSAQNTFVCTGDEVQCCEAQGGQGVNNAHTTYFGMTSGACTW
B6: unnamed (protein)
chain: MKQFSAKHALAVVVTAGHALAASTQGISEDLYTRLVEMATISQAAYADLCNIPSTIIKGEKIYNSQTDINGWILRDDSSKEIITVFRGTGSITNLQLDTNYTLTPFDTLPQCNGCEVHGGYYIGWVSVQDQVESLVKQQVSQYPDYALTVTGHSLGASLAALTAAQLSATYDNIRLYTFGEPRSGNQAFASYMNDAFQASSPDTTQYFRVTHANDGIPNLPPVEQGYAHGGVEYWSVDPYSAQNTFVCTGDEVQCCEAQGGQGVNNAHTTYFGMTSGACTW

These proteins were tested on 2-(1-Naphthyl)butanoic acid. Conditions: pH 5; 37 °C.
B1 was tested, and the Km was 330 µM, the kcat was 2.33 s⁻¹ and the kcat/Km was 7060 M⁻¹ s⁻¹. Work on B2 yielded a Km of 630 µM, a kcat of 3.77 s⁻¹ and a kcat/Km of 5980 M⁻¹ s⁻¹. Protein B6 has a Km of 290 µM, a kcat of 2.7 s⁻¹ and a kcat/Km of 9310 M⁻¹ s⁻¹.

These proteins were tested on alpha-Naphthyl caprylate. Conditions: pH 5; 37 °C.
Protein B1 has a Km of 79 µM, a kcat of 0.85 s⁻¹ and a kcat/Km of 10800 M⁻¹ s⁻¹. B2 was tested, and the Km was 17 µM, the kcat was 0.32 s⁻¹ and the kcat/Km was 18800 M⁻¹ s⁻¹. B3 gave a Km of 20 µM, a kcat of 1.09 s⁻¹ and a kcat/Km of 54500 M⁻¹ s⁻¹. Protein B6 has a Km of 50 µM, a kcat of 0.64 s⁻¹ and a kcat/Km of 12800 M⁻¹ s⁻¹.

Each protein was assayed on 2-(1-Naphthyl)butanoic acid. Conditions: pH 6; 37 °C.
For B3, the Km was 630 µM, the kcat was 3.38 s⁻¹ and the kcat/Km was 5370 M⁻¹ s⁻¹.

Same assay, conditions: pH 7.5; 37 °C
For B4, the Km was 150 µM, the kcat was 3.72 s⁻¹ and the kcat/Km was 24800 M⁻¹ s⁻¹.

Same assay, conditions: pH 7; 37 °C
Work on B5 yielded a Km of 180 µM, a kcat of 32.1 s⁻¹ and a kcat/Km of 178000 M⁻¹ s⁻¹.
